Measurements taken from article PMC3610906.

Biological target: microtubules in LLCPK cells (pig (endogenous in LLCPK)) (UniProt P02550)
Experiment: FRAP; living LLCPK cells expressing GFP-tau, 37°C; fluorescence recovery integrated along line scans on single photobleached microtubules; half time from a first-order rate constant (t1/2 = ln2/k)

Sequence of UniProt P02550 (P02550 whole entry, chain 1 of 2): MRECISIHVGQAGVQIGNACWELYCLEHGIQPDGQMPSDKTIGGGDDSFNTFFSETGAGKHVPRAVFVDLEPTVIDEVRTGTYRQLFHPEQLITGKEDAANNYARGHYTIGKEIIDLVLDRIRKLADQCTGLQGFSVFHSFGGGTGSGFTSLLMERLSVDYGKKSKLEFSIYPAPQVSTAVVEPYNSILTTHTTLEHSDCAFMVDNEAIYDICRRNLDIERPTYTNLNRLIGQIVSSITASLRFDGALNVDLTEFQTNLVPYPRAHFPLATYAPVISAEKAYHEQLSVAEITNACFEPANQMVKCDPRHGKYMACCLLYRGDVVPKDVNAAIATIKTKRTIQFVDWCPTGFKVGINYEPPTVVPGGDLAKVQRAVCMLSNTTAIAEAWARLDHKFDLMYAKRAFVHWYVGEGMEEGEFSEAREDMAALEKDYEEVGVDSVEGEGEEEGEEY
Sequence of UniProt P02550 (Q767L7 whole entry, chain 2 of 2, further chain): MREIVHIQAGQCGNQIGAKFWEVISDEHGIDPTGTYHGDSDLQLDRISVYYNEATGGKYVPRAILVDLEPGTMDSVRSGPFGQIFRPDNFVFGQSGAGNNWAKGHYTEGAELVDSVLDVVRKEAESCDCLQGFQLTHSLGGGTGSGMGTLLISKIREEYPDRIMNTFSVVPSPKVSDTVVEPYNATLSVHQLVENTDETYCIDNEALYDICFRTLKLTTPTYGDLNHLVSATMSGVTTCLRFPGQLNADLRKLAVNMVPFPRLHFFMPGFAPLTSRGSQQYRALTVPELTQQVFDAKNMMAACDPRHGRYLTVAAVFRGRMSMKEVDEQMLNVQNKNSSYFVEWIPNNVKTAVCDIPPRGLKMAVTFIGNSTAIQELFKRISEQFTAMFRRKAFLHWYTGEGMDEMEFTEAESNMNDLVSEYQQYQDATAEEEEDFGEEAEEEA

half time of fluorescence recovery on microtubules: 6.8 s
Substance: GFP-tau (isoform with three microtubule-binding repeats) (natural protein)
